Fewer inactive variants are shown than the library holds.
How the values were obtained:
[1] = test system: biotinyl-Phe-oxazolone; assay: self-aminoacylation, catalytic enhancement (BFO) (fold over background); higher = more active; k-Seq, kA / k0A0; sequences stand for … in GGGAAUGGAUCCACAUCUACGAAUUC…UUCACUGCAGACUUGACGAAGCUG
Summary of the method: (§1)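 Each biotinyl-aminoacyl-oxazolone, at 2–1250 μM, was incubated with mutagenized RNA pools (0.43 μM) carrying a 21-nt variable region. The 50 μL reactions contained HEPES/NaCl/KCl/MgCl2/CaCl2 buffer with 5% acetonitrile at pH 6.9–7.0 and ran for 90 minutes at room temperature. After streptavidin capture, RNA was measured by qPCR in triplicate and by Illumina sequencing, and catalytic enhancement was calculated as median kA over the uncatalyzed rate from a pseudo-first-order fit of per-sequence fraction reacted.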

[2] = test system: biotinyl-Ile-oxazolone; assay: self-aminoacylation, catalytic enhancement (BIO) (fold over background); higher = more active; k-Seq, kA / k0A0; sequences stand for … in GGGAAUGGAUCCACAUCUACGAAUUC…UUCACUGCAGACUUGACGAAGCUG
Summary of the method: as §1

[3] = test system: biotinyl-Met-oxazolone; assay: self-aminoacylation, catalytic enhancement (BMO) (fold over background); higher = more active; k-Seq, kA / k0A0; sequences stand for … in GGGAAUGGAUCCACAUCUACGAAUUC…UUCACUGCAGACUUGACGAAGCUG
Summary of the method: as §1

[4] = test system: biotinyl-Val-oxazolone; assay: self-aminoacylation, catalytic enhancement (BVO) (fold over background); higher = more active; k-Seq, kA / k0A0; sequences stand for … in GGGAAUGGAUCCACAUCUACGAAUUC…UUCACUGCAGACUUGACGAAGCUG
Summary of the method: as §1

[5] = test system: biotinyl-Leu-oxazolone; assay: self-aminoacylation, catalytic enhancement (BLO) (fold over background); higher = more active; k-Seq, kA / k0A0; sequences stand for … in GGGAAUGGAUCCACAUCUACGAAUUC…UUCACUGCAGACUUGACGAAGCUG
Summary of the method: as §1

[6] = test system: biotinyl-Trp-oxazolone; assay: self-aminoacylation, catalytic enhancement (BWO) (fold over background); higher = more active; k-Seq, kA / k0A0; sequences stand for … in GGGAAUGGAUCCACAUCUACGAAUUC…UUCACUGCAGACUUGACGAAGCUG
Summary of the method: as §1

| Sequence | self-aminoacylation [1] | self-aminoacylation [2] | self-aminoacylation [3] | self-aminoacylation [4] | self-aminoacylation [5] | self-aminoacylation [6] |
| --- | --- | --- | --- | --- | --- | --- |
| GAGUUUGCUAAUACUCGCAAG [Fam3.1 aminoacylation ribozyme variant] | 1.09 | 1.03 | 0.939 | 1.07 | 1.01 | 1.12 |
| GAGUUUGCUAAUAGUCCCAAG [Fam3.1 aminoacylation ribozyme variant] | 4.57 | 1.05 | 1.33 | 1.1 | 0.812 | 1.64 |
| GAGUUUGCUAAUAGUCGCAAC [Fam3.1 aminoacylation ribozyme variant] | 1.19 | 1.4 | 1.31 | 1.19 | 0.998 | 1.2 |
| GAGUUUGCUAAUAGUCGCAUG [Fam3.1 aminoacylation ribozyme variant] | 2.24 | 1.59 | 1.59 | 1.44 | 1.25 | 1.17 |
| GAGUUUGCUAAUAGUCGCCAG [Fam3.1 aminoacylation ribozyme variant] | 2.04 | 2.51 | 2.45 | 1.69 | 1.47 | 2.6 |
| GAGUUUGCUAAUAGUCUCAAG [Fam3.1 aminoacylation ribozyme variant] | 6.85 | 1.32 | 0.852 | 1.08 | 0.855 | 2.43 |
| GAGUUUGCUAAUAUUCGCAAG [Fam3.1 aminoacylation ribozyme variant] | 1.73 | 2.04 | 1.45 | 1.36 | 1.46 | 1.62 |
| GAGUUUGCUAAUGGUCGCAAG [Fam3.1 aminoacylation ribozyme variant] | 2.82 | 0.99 | 0.779 | 1.02 | 0.903 | 1.16 |
| GAGUUUGGUAAUAGUCGCAAG [Fam3.1 aminoacylation ribozyme variant] | 3.41 | 1.94 | 1.75 | 1.55 | 1.73 | 2.36 |
| GAUCACCUAGGUCAUCGGGUG [Fam2.2 aminoacylation ribozyme variant] | 17.2 | 3.45 | 3.44 | 3.54 | 3.71 | 5.58 |
| GAUUUUGCUAAUAGUCGCAAG [Fam3.1 aminoacylation ribozyme variant] | 2.53 | 1.99 | 2.2 | 1.83 | 1.82 | 2.99 |
| GCACAAUUCAAGCAAUCGGUC [Fam1B.1 aminoacylation ribozyme variant] | 3.04 | 2.1 | 1.81 | 1.94 | 1.79 | 3.3 |
| GCACACUUCAACCAAUCGGUC [Fam1B.1 aminoacylation ribozyme variant] | 60.5 | 2.39 | 2.02 | 2.43 | 2.93 | 44 |
| GCACACUUCAAGCAAGCGGUC [Fam1B.1 aminoacylation ribozyme variant] | 3.91 | 2.42 | 1.93 | 2.54 | 2.06 | 3.01 |
| GCACACUUCAAGCAAUCGCUC [Fam1B.1 aminoacylation ribozyme variant] | 12.2 | 3.18 | 2.84 | 2.92 | 2.82 | 4.76 |
| GCACACUUCAAGCAAUCUGUC [Fam1B.1 aminoacylation ribozyme variant] | 1.22 | 0.87 | 0.605 | 0.867 | 0.708 | 0.902 |
| GCACACUUCAAGCAAUUGGUC [Fam1B.1 aminoacylation ribozyme variant] | 2.06 | 1.47 | 1.45 | 1.22 | 1.3 | 1.94 |
| GCACACUUCAAGCUAUCGGUC [Fam1B.1 aminoacylation ribozyme variant] | 1.47 | 1.48 | 1.36 | 1.48 | 1.35 | 1.81 |
| GCACACUUGAAGCAAUCGGUC [Fam1B.1 aminoacylation ribozyme variant] | 1.46 | 1.45 | 1.11 | 1.4 | 1.29 | 1.99 |
| GCACAGUUCAAGCAAUCGGUC [Fam1B.1 aminoacylation ribozyme variant] | 4.42 | 2.44 | 1.98 | 2.07 | 2.04 | 4.48 |
| GCACGCUUCAAGCAAUCGGUC [Fam1B.1 aminoacylation ribozyme variant] | 120 | 2.55 | 2.62 | 2.74 | 3.62 | 60.1 |

| Sequence | self-aminoacylation [1] | self-aminoacylation [2] | self-aminoacylation [3] | self-aminoacylation [4] | self-aminoacylation [5] | self-aminoacylation [6] |
| --- | --- | --- | --- | --- | --- | --- |
| GCAGACUUCAAGCAAUCGGUC [Fam1B.1 aminoacylation ribozyme variant] | 119 | 3.19 | 2.82 | 2.67 | 4.28 | 49.8 |
| GCAUACUUCAAGCAAUCGGUC [Fam1B.1 aminoacylation ribozyme variant] | 19.8 | 2.35 | 2.03 | 2.01 | 2.19 | 18 |
| GCUCACCUAGGUCAUCGGGUG [Fam2.2 aminoacylation ribozyme variant] | 35.1 | 5.39 | 6.13 | 5.77 | 6.79 | 9.1 |
| GGGUUUGCUAAUAGUCGCAAG [Fam3.1 aminoacylation ribozyme variant] | 12.3 | 2.32 | 1.89 | 2.01 | 2.45 | 6.82 |
| GUAACCCUGGUCAUCGAGUGA [Fam2.1 aminoacylation ribozyme variant] | 75.7 | 7.01 | 15.2 | 6.13 | 15.6 | 15.1 |
| GUACUUCAAACAAUCCGUCUG [Fam1A.1 aminoacylation ribozyme variant] | 2.63 | 1.49 | 1.02 | 1.24 | 1.45 | 2.16 |
| GUACUUCAAACAAUCGGUCUA [Fam1A.1 aminoacylation ribozyme variant] | 4.84 | 1.17 | 0.943 | 0.997 | 0.933 | 3.66 |
| GUACUUCAAACAAUCGGUUUG [Fam1A.1 aminoacylation ribozyme variant] | 40.2 | 1.85 | 1.66 | 1.59 | 1.89 | 27.8 |
| GUACUUCAAACAGUCGGUCUG [Fam1A.1 aminoacylation ribozyme variant] | 1.14 | 1.32 | 1.41 | 1.22 | 1.3 | 1.5 |
| GUUACCCAGGUCAUCGAGUGA [Fam2.1 aminoacylation ribozyme variant] | 22.2 | 4.24 | 6.63 | 3.78 | 6.2 | 7.86 |
| GUUACCCUGGUAAUCGAGUGA [Fam2.1 aminoacylation ribozyme variant] | 58.5 | 4.93 | 10.7 | 4.77 | 10.5 | 13.9 |
| GUUACCCUGGUCAUAGAGUGA [Fam2.1 aminoacylation ribozyme variant] | 85.2 | 5.89 | 11.1 | 5.04 | 12.6 | 14.1 |
| GUUACCCUGGUCAUCCAGUGA [Fam2.1 aminoacylation ribozyme variant] | 52.7 | 4.66 | 7.39 | 4.7 | 7.84 | 9.02 |
| GUUACCCUGGUCAUCGAAUGA [Fam2.1 aminoacylation ribozyme variant] | 1.45 | 1.58 | 1.52 | 1.81 | 1.84 | 2.55 |
| GUUACCCUGGUCAUCGACUGA [Fam2.1 aminoacylation ribozyme variant] | 0.937 | 1.2 | 1.4 | 1.21 | 1.45 | 1.01 |
| GUUACCCUGGUCAUCGAGUGU [Fam2.1 aminoacylation ribozyme variant] | 825 | 31.5 | 111 | 37.1 | 114 | 102 |
| GUUACCCUGGUCAUCGUGUGA [Fam2.1 aminoacylation ribozyme variant] | 30.3 | 2.6 | 4.3 | 3.08 | 4.75 | 6.06 |
| GUUACCCUGGUCCUCGAGUGA [Fam2.1 aminoacylation ribozyme variant] | 42.7 | 3.36 | 6.3 | 4.16 | 5.97 | 6.45 |
| GUUACCCUGUUCAUCGAGUGA [Fam2.1 aminoacylation ribozyme variant] | 37.5 | 3.34 | 7 | 3.5 | 7.51 | 8.4 |
| GUUACCGUGGUCAUCGAGUGA [Fam2.1 aminoacylation ribozyme variant] | 55.3 | 5.33 | 9.15 | 5.58 | 10.6 | 10.1 |
| GUUACCUUGGUCAUCGAGUGA [Fam2.1 aminoacylation ribozyme variant] | 21.1 | 4.39 | 7.16 | 4.21 | 7.14 | 9.03 |
